Patent US11370846B2, “Compositions and methods to regulate Renalase in the treatment of cancer” (Yale University, priority 2014, dated 2022)
Residue numbers refer to the chain shown, from its start. Like-named read-outs stand apart in the source and are kept apart here. Each block holds one molecule with its values, some of them ahead of it.

What was measured:
[1] = test system: renalase-1 and renalase-2; experiment: Renalase isoform specificity of anti-renalase antibodies; type: binding, human; details: renalase-1 vs renalase-2
Description: Peptides were used as immunogens. The peptides generated ranged from 9 to 21 amino acids and corresponded to regions of the renalase-1 and renalase-2 proteins. […] Each peptide was conjugated to the adjuvant KLH via the cysteine and used to immunize 6 rabbits. Antiserum collected from each animal was screened for anti-renalase antibody titer by ELISA assay using both the relevant peptide (BSA-conjugate) or full length renalase-1 or 2. The antisera were also tested for their ability to detect endogenous renalase in tissue lysates by western blot. Using these screening criteria the animals producing antibodies with the preferred characteristics were selected. In some examples and for some peptides, several animals produced antibodies with the required specificity. […] Polyclonal antibodies raised against all of the peptides were generated by purification of total IgG from terminal bleeds by protein G chromatography followed by further purification on peptide affinity chromatography. Further and using standard procedures, lymphocytes from the spleens of selected animals were fused to myeloma cells for hybridoma generation. The hybridoma supernatants were screened for binding to both the peptides against which they were raised and secondarily screened against whole renalase protein. Selected hybridomas were sub-cloned and expanded for antibody purification. The monoclonal antibodies were purified from conditioned hybridoma culture supernatant by protein A affinity chromatography.

PDACC = PDACC growth with anti-RNLS antibodies, WST-1; type: cell-based, human; details: 72 hrs
Description: FIG. 25A through FIG. 25E are a series of charts and images showing that inhibition of RNLS signaling is cytotoxic to cancer cells in vitro and in vivo. FIG. 25A is a chart showing relative cell viability following transient transfection of Panc1 cells using a RNLS-specific siRNA, or a non-specific control siRNA, and cell viability assayed 96 h later using the WST-1 reagent; n=6, ** indicates p<0.001. FIG. 25B is a chart showing relative cell viability when cells were treated with indicated antibodies for 72 hrs and cell viability determined using WST-1; m28-RNLS and m37-RNLS: monoclonal antibodies raised against RNLS peptide RP220, ab31291: Abcam polyclonal antibody raised against a partial sequence of RP-220; n=6, * indicates p<0.005. […] FIG. 25D is a chart showing tumor volume increase after athymic nude mice received subcutaneous injection of Panc1 cells transduced with RNLS shRNA (sh-RNLS) or control (sh-Control); tumor volume measured every […] for up to 30 days, n=6 each; * indicates p<0.05. FIG. 25E is chart showing tumor volume increase after nude mice were xenografted with BxPC3; tumor volume measured prior to treatment every 3-4 days with 2 mg/kg of either rabbit IgG as a negative control or with m28-RNLS, n=10, * indicates p<0.05.

melanoma cells = experiment: Melanoma cell lines in culture, viability/growth; type: cell-based, human
Description: FIG. 19A through FIG. 19D are a series of images and charts showing that inhibition of RNLS signaling is cytotoxic to melanoma cells in vitro. […] FIG. 19B comprises two charts depicting relative cell viability: Left panel: Cells were treated with indicated antibodies for 72 hrs and cell viability was determined using WST-1; m28-RNLS (also known as 1D-28-4), m37-RNLS (also known as 1D-37-10): monoclonal antibodies raised against RNLS peptide RP220; Right panel: A375.S2 cells treated with increasing doses of m28-RNLS for 72 hrs and cell viability determined with a WST-1 assay; n=6, * indicates p<0.05 and ** indicates p<0.005. FIG. 19C comprises representative photos of A375.S2, SkMe128, and SkMe15 after 72 hrs incubation with either control rabbit IgG or m28-RNLS. FIG. 19D is a chart depicting relative cell viability, comprising amino acid (AA) sequence of RNLS peptide antagonist (RP220A).
(§1) For additional studies, cell viability was determined using WST-1 reagent (Roche Diagnostics, Indianapolis, Ind., USA) according to the manufacturers' instruction. Absorbances were read using a microplate reader (Power Waves XS, BioTek Instruments, Winooski, Vt., USA).

STAT3 [2] = experiment: STAT phosphorylation in HK-2 cells treated with RNLS; type: cell-based, human
[3] = test system: melanoma cells (A375.S2, MeWo, SkMe15, and SkMe128); experiment: Survival of serum-starved melanoma cells with rRNLS, WST-1; type: cell-based, human; details: 30 ug/ml, 72 hrs, compared to BSA
Description: FIG. 18A and FIG. 18B are two charts showing that RNLS overexpression favors cancer cell survival.
as §1

STAT3 [4] = experiment: STAT3 phosphorylation in Panc1 cells by western blot; type: cell-based, human; details: addition of RNLS
Description: FIG. 27A through FIG. 27E are a series of images and charts showing the interaction between RNLS and STAT3, and the mechanistic model of inhibition by m28-RNLS. FIG. 27A is an image showing activation of STAT3 by RNLS in Panc1 cells; Panc1 cells in culture treated with either BSA or RNLS, and STAT3 phosphorylation assessed by western blot; p-Ser^727-STAT3: phosphorylation at serine 727, p-Y^705-STAT3: phosphorylation at tyrosine 705; representative study. FIG. 27B is a chart depicting the quantification of STAT3 phosphorylation with RNLS; signals normalized to total STAT3; n=3, *=P<0.05. […] FIG. 27D is a chart showing the quantification of STAT3 phosphorylation with m28-RNLS; signals normalized to GAPDH loading control; n=3, *=P<0.05. FIG. 27E depicts the proposed mechanistic model for antitumor activity of m28-RNLS.

MiaPaCa2 cells = experiment: FACS cell cycle analysis of MiaPaCa2 cells treated with rRNLS; type: cell-based, human; details: 30 μg/ml, compared to BSA
Description: For cell cycle analysis, cultured cells were dissociated using 10 mM EDTA, fixed with ice-cold 70% ethanol, digested with RNAse A, and stained with propidium iodide. Propidium staining was detected using a BD FACSCalibur flow cytometer (BD Biosciences, San Jose, Calif., USA), and analyzed using CellQuest software.

- renalase isoform specificity [1]: specific for renalase-1
B1: 1F-26-1: anti-renalase monoclonal specific for renalase-1 (antigen 1F); heavy chain SEQ ID NO:25, light chain SEQ ID NO:26 (antibody)
heavy: METGLRWLLLVAVLKGVQCQSVKESEGGLFKPTDTLTLTCTVSGFSLSSYGVTWVRQAPGNGLEWIGLIGDRGTTFYASWAKSRSTITRNTNLNTVTLKMTRLTAADTATYFCARGSGYGARIWGPGTLVTVSSWQPKAPSVFPLAPCCGDTPSSTVTLGCLVKGYLPEPVTVTWNSGTLTNGVRTFPSVRQSSGLYSLSSVVSVTSSSQPVTCNVAHPATNTKVDKTVAPSTCSKPTCPPPELLGGPSVFIFPPKPKDTLMISRTPEVTCVVVDVSQDDPEVQFTWYINNEQVRTARPPLREQQFNSTIRVVSTLPIAHQDWLRGKEFKCKVHNKALPAPIEKTISKARGQPLEPKVYTMGPPREELSSRSVSLTCMINGFYPSDISVEWEKNGKAEDNYKTTPAVLDSDGSYFLYSKLSVPTSEWQRGDVFTCSVMHEALHNHYTQKSISRSPGK
light: MDTRAPTQLLGLLLLWLPGATFAQVLTQTPSPVSAAVGGTVTINCQSSQSVYKNNYLAWYQQKPGQPPKLLIYETSKLASGVPPRFSGSGSGTQFTLTISSVQCDDAATYYCQGGYSGVDFMAFGGGTEVVVKGDPVAPTVLIFPPSADLVATGTVTIVCVANKYFPDVTVTWEVDGTTQTTGIENSKTPQNSADCTYNLSSTLTLTSTQYNSHKEYTCKVTQGTTSVVQSFNRGDC
modifications: oryctolagus cuniculus

- renalase isoform specificity [1]: specific for renalase-1
B2: 1F-42-7: anti-renalase monoclonal specific for renalase-1 (antigen 1F); heavy chain SEQ ID NO:33, light chain SEQ ID NO:34 (antibody)
heavy: B1 heavy with S48T, S49T, F76Y, A81V, K82N, S83G, S133A
light: B1 light with V33M, V37L, S50T, K53N, A58S, A79S
modifications: oryctolagus cuniculus

- renalase isoform specificity [1]: recognize renalase-1 and renalase-2
B3: 1D-37-10: rabbit anti-renalase monoclonal raised against peptide RP-220 (antigen 1D); heavy chain SEQ ID NO:17, light chain SEQ ID NO:18 (antibody)
heavy: METGLRWLLLVAVLKGVQCQSVEESGGRLVTPGGSLTLTCTVSGFSLSDYAIIWVRQAPGKGLEYIAIIGSSGDTFYATWAKGRFTISKTSTTVDLKMTSLTAADTATYFCAPRYAGTTDYHDAFDPWGPGTLVTVSSGQPKAPSVFPLAPCCGDTPSSTVTLGCLVKGYLPEPVTVTWNSGTLTNGVRTFPSVRQSSGLYSLSSVVSVTSSSQPVTCNVAHPATNTKVDKTVAPSTCSKPTCPPPELLGGPSVFIFPPKPKDTLMISRTPEVTCVVVDVSQDDPEVQFTWYINNEQVRTARPPLREQQFNSTIRVVSTLPIAHQDWLRGKEFKCKVHNKALPAPIEKTISKARGQPLEPKVYTMGPPREELSSRSVSLTCMINGFYPSDISVEWEKNGKAEDNYKTTPAVLDSDGSYFLYSKLSVPTSEWQRGDVFTCSVMHEALHNHYTQKSISRSPGK
light: MDTRAPTQLLGLLLLWLPGARCAEVVMTQTPASMEAPMGGTVTIKCQASQNIYNYLSWYQQKPGQPPKLLVYKASTLTSGVPSRFKGSGSGTQFTLTISDLECADAATYYCQINYSIYNHYNIIFGGGTEVVVKGDPVAPTVLIFPPSADLVATGTVTIVCVANKYFPDVTVTWEVDGTTQTTGIENSKTPQNSADCTYNLSSTLTLTSTQYNSHKEYTCKVTQGTTSVVQSFNRGDC
modifications: oryctolagus cuniculus
- PDACC growth (PDACC): inhibitory effects
- melanoma cell growth/viability in culture (melanoma cells): inhibit melanoma cells in culture
- melanoma cell growth/viability in culture (melanoma cells; listed as D-37-10): inhibit melanoma cell growth
- melanoma cell growth/viability in culture (melanoma cells; listed as m37-RNLS): decreased the viability of all (total of 5) melanoma cell lines tested

- renalase isoform specificity [1]: specific for renalase-2
B4: 3A-5-2: anti-renalase monoclonal specific for renalase-2 (antigen 3A); heavy chain SEQ ID NO:41, light chain SEQ ID NO:42 (antibody)
heavy: METGLRWLLLVAVLKGVQCQSLEESGGRLVTPGTPLTLTCTVSGFSLNNYHIYWVRQAPGKGLEYIGIIFNGGTYYARWTKGRFTISKTSTTVDLKMTSLTTEDTATYFCARGDGIWGPGTLVTVSLGQPKAPSVFPLAPCCGDTPSSTVTLGCLVKGYLPEPVTVTWNSGTLTNGVRTFPSVRQSSGLYSLSSVVSVTSSSQPVTCNVAHPATNTKVDKTVAPSTCSKPTCPPPELLGGPSVFIFPPKPKDTLMISRTPEVTCVVVDVSQDDPEVQFTWYINNEQVRTARPPLREQQFNSTIRVVSTLPIAHQDWLRGKEFKCKVHNKALPAPIEKTISKARGQPLEPKVYTMGPPREELSSRSVSLTCMINGFYPSDISVEWEKNGKAEDNYKTTPAVLDSDGSYFLYSKLSVPTSEWQRGDVFTCSVMHEALHNHYTQKSISRSPGK
light: MDTRAPTQLLGLLLLWLPGATFAQVLTQTPASVSAAVGGTVTINCQASQSVFNNNYLAWYQQKPGQPPKRLIYSASTLASGVSSRFKGSGSGTEFTLTMSGVECDDAATYYCAGSFDCNSGDCVAFGGGTEVVVKGDPVAPTVLIFPPAADQVATGTVTIVCVANKYFPDVTVTWEVDGTTQTTGIENSKTPQNSADCTYNLSSTLTLTSTQYNSHKEYTCKVTQGTTSVVQSFNRGDC
modifications: oryctolagus cuniculus

B5: rRNLS: Recombinant human RNLS (renalase) (protein)
chain: ALLRRQTSGPLYLAVWDKAEDSGGRMTTACSPHNPQCTADLGAQYITCTPHYAKKHQRFYDELLAYGVLRPLSSPIEGMVMKEGDCNFVAPQGISSIIKHYLKESGAEVYFRHRVTQINLRDDKWEVSKQTGSPEQFDLIVLTMPVPEILQLQGDITTLISECQRQQLEAVSYSSRYALGLFYEAGTKIDVPWAGQYITSNPCIRFVSIDNKKRNIESSEIGPSLVIHTTVPFGVTYLEHSIEDVQELVFQQLENILPGLPQPIATKCQKWRHSQVTNAAANCPGQMTLHHKPFLACGGDGFTQSNFDGCITSALCVLEALKNYI
- increase in STAT3 phosphorylation at serine 727 (p-Ser727-STAT3) (STAT3 [2]): 2 fold
- increase in STAT3 phosphorylation at tyrosine 705 (p-Y705-STAT3) (STAT3 [2]): 4 fold
- survival of serum-starved melanoma cells [3]: markedly increased the survival
- phosphorylated STAT3 (p-Ser727-STAT3 and p-Y705-STAT3) in Panc1 (STAT3 [4]): rapid increase
- cell cycle progression (MiaPaCa2 cells): no effect
